Experimental data from patent US20250250357A1 (NANJING ZAIMING PHARMACEUTICAL, published 2025).
Residue numbers refer to the chain shown, from its start.

B1: S009-F1.56.1 (antibody, human IgG1, kappa, V domains shown)
VH: EVQLQQSGAEVVKPGASVKLSCTASGFNIRHTYMHWVKQRPEQGLEWIGRIDPANGNTEYDPKFQGKATITADTSSNTAYLQLSSLTSEDTAVYYCARDGWYIDVWGAGTTVTVSS
VL: DIVMSQSPSSLAVSVGEKVTMSCKSSQSLLYSNNQKNYLAWYQQKPGQSPKLLIYWASTRESGVPDRFTGSGSGTDFTLTISSVKAEDLAVYYCQRYYSYPWTFGGGTKLEIKR
notes: Human-murine chimeric antibody, human IgG1/kappa constant regions
B2: S009-F1.7.14 (antibody, human IgG1, kappa)
heavy: not shown
light: QIVLTQSPAIMSASPGEKVTISCSASSSVSYMYWYQQKPGSSPKPWISRTSNLASGVPARFSGSGSGTSYSLTISSMEAEDAATYYCQQYHSYPPTLGAGTKLELKRTVAAPSVFIFPPSDEQLKSGTASVVCLLNNFYPREAKVQWKVDNALQSGNSQESVTEQDSKDSTYSLSSTLTLSKADYEKHKVYACEVTHQGLSSPVTKSFNRGEC
notes: as for B1
B3: S009-F1.2.12 (antibody, human IgG1, kappa, V domains shown)
VH: QVQLKQTGPGLVQPSQSLSITCTVSGFSLTNYAVHWVRQSPGKGLEWLGVIWSGGATDYNTVFISRLSISKDNSKSQVFFKVNSLQVDDTAIYYCARTGSGYAMDYWGQGTSVTVSS
VL: DIVLTQSPATLSVTPGDRVSLSCRTSHNVNTYLHWYQQKSHESPRLLIKYASQSISEIPSRFSGSGSGTNFTLSINSVETEDFGMYFCHQTNRWPLTFGAGTKLELKR
B4: S009-F1.57.1 (antibody, human IgG1, kappa, V domains shown)
VH: EAQLQQSGAVFVKPGASVKLSCTASGFSSKDIFLHWVKQRPEQGLEWIGRIDPASDNTIYDPKFQDRATITSDRSSNTAYLQFSSLTSEDTAVYFCLYFDFWGQGTTLTVSS
VL: DIVMTQATPSISVTPGESVSISCRSSESLLHSNGNTYLYWFLQRPGQSPQLLIYRMSNLASGVPDRFSVSGSGTAFTLRISRVEAEDVGVYYCMQHLEYPLTFGAGTKLELKR
notes: as for B1
B5: S009-F1.62.9 (antibody, human IgG1, kappa, V domains shown)
VH: EVQLQQSGADLVKPGASVKLSCTVFGLNFKDTFMHWVRQRPEQGLEWIGRIDPANDNSIYGPKFQDKATITADTSSNTAYLHLSSLTSEDTAVYYCLYFDNWGHGTTLTVSS
VL: B4 VL with T8A, P9S, I11E, S12P, S26D, E27K, N35H, T36N, Q50H, V69G
notes: as for B1
B6: S009-F1.59.1 (antibody, human IgG1, kappa, V domains shown)
VH: EVKLEGSGGGLVQPGGSMMLSCVATGFTFSSYWMNWVRQSPDRGLEWVAEIRLKSNGFAAFYAESVKGRFTISRDDSKSSVYLQMNNLRTEDTGIYYCTYFVHWGQGILVTVSE
VL: DIVLTQSPTSLAVSLGQRATISCRTSESVEYFGTILIQWYQQKPGQPPKLLIFGASNVESGVPARFSGSGSGTDFSLNIHPVEEEDIAMYFCQQNRKVPYTFGGGTTLELKR
notes: as for B1

Target: T1, human MSLN-R3-his protein (human, UniProt Q13421 487-598)
T1 construct: Region 3 of human MSLN, His-tagged; also called human MSLN-R3 protein; hMSLN-R3-his; not shown: His tag
Assay: ELISA, coated MSLN-R3

T1 sequence (Q13421 495-606): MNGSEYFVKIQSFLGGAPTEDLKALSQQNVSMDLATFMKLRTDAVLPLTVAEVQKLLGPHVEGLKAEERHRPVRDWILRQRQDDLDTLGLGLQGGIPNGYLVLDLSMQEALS

Binder	OD450 at 0.0001 nM [OD450]	OD450 at 0.001 nM [OD450]	OD450 at 0.01 nM [OD450]	OD450 at 0.1 nM [OD450]	OD450 at 1 nM [OD450]	OD450 at 10 nM [OD450]	OD450 at 100 nM [OD450]	OD450 at none (no antibody) [OD450]
B1	0.05	0.04	0.04	0.05	0.04	0.05	0.06	0.06
B2	0.05	0.05	0.04	0.05	0.05	0.07	0.1	0.05
B3	0.05	0.06	0.05	0.05	0.05	0.06	0.06	0.06
B4	0.05	0.05	0.06	0.19	0.86	1.81	2.25	0.05
B5	0.04	0.06	0.07	0.26	1.06	2	2.32	0.05
B6	0.05	0.06	0.17	1	1.62	2.05	2.51	0.05

Target: T2, human MSLN-R3-3 polypeptide (human)
T2 construct: also called human MSLN-R3-3 protein; hMSLN-R3-3
Assay: ELISA, coated MSLN-R3-3;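 note: chimeric antibodies in serial dilution bound to plate-coated antigen for 2 h at 37 °C, with a negative control antibody alongside, and TMB colour development stopped with HCl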
Method: The plate was sealed with a plastic film and incubated at 4° C. overnight. The next day, the plate was washed twice with PBST, and a blocking buffer [PBS+2% (w/w) BSA] was added for blocking at room temperature for 2 h. The blocking buffer was discarded, and a chimeric antibody or negative control antibody serially diluted from 100 nM was added at 50 μL/well. After incubation at 37° C. for 2 h, the plate was washed 3 times with PBST. […] After incubation at 37° C. for 2 h, the plate was washed 5 times with PBST. A TMB substrate was added at 50 μL/well for incubation at room temperature for 5-10 min, and then a stop solution (1.0 N HCl) was added at 50 μL/well.

Binder	OD450 at 0.0001 nM [OD450]	OD450 at 0.001 nM [OD450]	OD450 at 0.01 nM [OD450]	OD450 at 0.1 nM [OD450]	OD450 at 1 nM [OD450]	OD450 at 10 nM [OD450]	OD450 at 100 nM [OD450]	OD450 at none (no antibody) [OD450]
B1	0.07	0.07	0.08	0.06	0.07	0.08	0.12	0.07
B2	0.07	0.07	0.07	0.07	0.07	0.13	0.72	0.07
B3	0.06	0.08	0.06	0.07	0.07	0.08	0.16	0.08
B4	0.06	0.07	0.07	0.07	0.07	0.07	0.11	0.07
B5	0.06	0.07	0.07	0.07	0.06	0.07	0.13	0.07
B6	0.06	0.06	0.06	0.06	0.07	0.07	0.18	0.07

Target: T3, human MSLN-R2-his protein (human, UniProt Q13421 391-486)
T3 construct: Region 2 of human MSLN, His-tagged; also called human MSLN-R2 protein; hMSLN-R2-his; not shown: His tag
Assay: ELISA, coated MSLN-R2;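 note: chimeric antibodies bound to blocked coated plates for 2 h at 37 °C, TMB colour development stopped with HCl, with a negative control antibody for comparison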

T3 sequence (Q13421 other isoform, or with tags, fused parts or gaps): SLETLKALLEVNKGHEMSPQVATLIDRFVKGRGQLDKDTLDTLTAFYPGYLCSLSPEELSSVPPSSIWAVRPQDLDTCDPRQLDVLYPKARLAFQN

Binder	OD450 at 0.0001 nM [OD450]	OD450 at 0.001 nM [OD450]	OD450 at 0.01 nM [OD450]	OD450 at 0.1 nM [OD450]	OD450 at 1 nM [OD450]	OD450 at 10 nM [OD450]	OD450 at 100 nM [OD450]	OD450 at none (no antibody) [OD450]
B1	0.04	0.05	0.19	0.88	2.04	2.31	2.62	0.05
B2	0.04	0.04	0.05	0.04	0.05	0.05	0.11	0.05
B3	0.05	0.05	0.05	0.06	0.1	0.3	1.44	0.05
B4	0.05	0.04	0.04	0.07	0.04	0.05	0.11	0.05
B5	0.03	0.05	0.04	0.06	0.04	0.05	0.06	0.04
B6	0.03	0.04	0.06	0.05	0.04	0.05	0.06	0.04
